The record followed here is US20120316071A1.

In assay [1] the target is rHuman P-Cadherin/Fc Chimera, CF (human) (UniProt P22223). Nature of the assay: ECL Multispot (MSD) assay; antigen spotted on plate, Fab in solution.
Assay [2] deals with human Delta-like ligand 4 (DLL4), full-length, expressed on CHO cells (human) (UniProt Q9NR61). Nature of the assay: cell-based or functional assay.
The target in assay [3] is human DLL4, full-length, expressed on the surface of CHO cells (human) (UniProt Q9NR61). Nature of the assay: cell-based or functional assay.
Assay [4] addresses rHuman P-Cadherin/Fc Chimera, CF (R&D Systems Cat#861-PC) (human) (UniProt P22223). Nature of the assay: ECL multispot (MSD) binding assay, antigens spotted on plate, 20 nM Fab.
For assay [5], the target named is rHuman Notch-1/Fc Chimera, CF (R&D Systems Cat#3647-TK) (human) (UniProt P46531). The description is as above.
The target of assay [6] is rHuman Erythropoietin R/Fc Chimera, CF (R&D Systems Cat#963-ER) (human) (UniProt P19235). The assay is described as above.
The target of assay [7] is Recombinant Human DLL4 (R&D Systems Cat#1506-D4/CF) (human) (UniProt Q9NR61). Nature of the assay: ECL Multispot (MSD), antigen spotted, Fab.
The target in assay [8] is rHuman HGF R/c-MET/Fc Chimera, CF (R&D Systems Cat#358-MT/CF) (human) (UniProt P08581). Nature of the assay: ECL Multispot (MSD), antigen spotted, Fab.
Assay [9] deals with rHuman IGF-1 sR, CF (R&D Systems Cat#391-GR) (human) (UniProt P08069). Nature of the assay: ECL Multispot (MSD), antigen spotted, Fab.
Assay [10] concerns the target rHuman Notch-1/Fc Chimera, CF (R&D Systems Cat#3647-TK) (human) (UniProt P46531). Nature of the assay: ECL Multispot (MSD), antigen spotted, Fab.
Assay [11] deals with Recombinant Human DLL4 (R&D Systems Cat#1506-D4/CF) (human) (UniProt Q9NR61). Nature of the assay: ECL multispot (MSD), antigen spotted, Fab in solution.
The target of assay [12] is rHuman CD44/Fc Chimera, CF (R&D Systems Cat#3660-CD) (human) (UniProt P16070). Described as above.
In assay [13] the target is rHuman Erythropoietin R/Fc Chimera, CF (R&D Systems Cat#963-ER) (human) (UniProt P19235). The assay is described as above.
The target of assay [14] is rHuman HGF R/c-MET/Fc Chimera, CF (R&D Systems Cat#358-MT/CF) (human) (UniProt P08581). Described as above.
In assay [15] the target is rHuman IGF-1 sR, CF (R&D Systems Cat#391-GR) (human) (UniProt P08069). The description is as above.
Assay [16] concerns the target rHuman Notch-1/Fc Chimera, CF (R&D Systems Cat#3647-TK) (human) (UniProt P46531). Described as above.
Assay [17] concerns the target rHuman P-Cadherin/Fc Chimera, CF (R&D Systems Cat#861-PC) (human) (UniProt P22223). Described as above.
Assay [18] concerns the target rHuman HGF R/c-MET/Fc Chimera, CF (R&D Systems Cat#358-MT/CF) (human) (UniProt P08581). Nature of the assay: ECL multispot (MSD) binding assay, antigen spotted on plate, Fab 0.04 uM.
In assay [19] the target is rHuman IGF-1 sR, CF (R&D Systems Cat#391-GR) (human) (UniProt P08069). Described as above.
Assay [20] has as its target rHuman Notch-1/Fc Chimera, CF (R&D Systems Cat#3647-TK) (human) (UniProt P46531). Described as above.
For assay [21], the target named is rHuman CD44/Fc Chimera, CF (R&D Systems Cat#3660-CD) (human) (UniProt P16070). Described as above.
Assay [22] concerns the target rHuman Erythropoietin R/Fc Chimera, CF (R&D Systems Cat#963-ER) (human) (UniProt P19235). The description is as above.
Assay [23] has as its target rHuman CD44/Fc Chimera, CF (R&D Systems Cat#3660-CD) (human) (UniProt P16070). Nature of the assay: MSD Multispot ECL, antigen spotted on plate, Fab in solution; blank spot of the row 240.
Assay [24] deals with rHuman ErbB2/Fc Chimera, CF (R&D Systems Cat#1129-ER) (human) (UniProt P04626). The assay is described as above.
The target of assay [25] is rHuman IGF-1 sR, (IGF-1 sR), CF (R&D Systems Cat#391-GR) (human) (UniProt P08069). Described as above.

In turn, “Fab VH1-46_IGHD6-6*01_IGHJ1*01 S102A/S103P/S104F/H111F (APFF) & L6_IGKJ1*01 S28Q” registered an ECL signal in assay [1] of 809.

In assay [1], “Fab VH1-46_IGHD6-6*01_IGHJ1*01 S102A/S103P/S104F/H111F (APFF) & L6_IGKJ1*01 S28T” displayed an ECL signal of 676.

Consider “Fab VH1-46_IGHD6-6*01_IGHJ1*01 S102A/S103P/S104F/H111F I51V/N52L/S54T/G56H & L6_IGKJ1*01 S28N/S30D/S31H S52L/A55S”, for which, in assay [2], the Notch1 luciferase reporter luminescence, T98G reporter cells + CHO-DLL4, 0.8 nM Fab, replicate 1 was 4740; the Notch1 luciferase reporter luminescence, T98G reporter cells + CHO-DLL4, 0.8 nM Fab, replicate 2 is 4890; the Notch1 luciferase reporter luminescence, T98G reporter cells + CHO-DLL4, 0.8 nM Fab, replicate 3 amounted to 3820; the Notch1 luciferase reporter luminescence, T98G reporter cells + CHO-DLL4, 0.8 nM Fab, replicate 4 amounted to 4080. Also, in assay [2], the Notch1 luciferase reporter luminescence, T98G reporter cells + CHO-DLL4, 4 nM Fab, replicate 1 is 4840; the Notch1 luciferase reporter luminescence, T98G reporter cells + CHO-DLL4, 4 nM Fab, replicate 2 was found to be 4880; the Notch1 luciferase reporter luminescence, T98G reporter cells + CHO-DLL4, 4 nM Fab, replicate 3 came out at 4250; the Notch1 luciferase reporter luminescence, T98G reporter cells + CHO-DLL4, 4 nM Fab, replicate 4 amounted to 4670. In assay [2], the Notch1 luciferase reporter luminescence, T98G reporter cells + CHO-DLL4, 20 nM Fab, replicate 1 is 4380; the Notch1 luciferase reporter luminescence, T98G reporter cells + CHO-DLL4, 20 nM Fab, replicate 2 came out at 4480; the Notch1 luciferase reporter luminescence, T98G reporter cells + CHO-DLL4, 20 nM Fab, replicate 3 worked out at 3960; the Notch1 luciferase reporter luminescence, T98G reporter cells + CHO-DLL4, 20 nM Fab, replicate 4 was determined as 3990.

“Fab VH1-46_IGHD6-6*01_IGHJ1*01 S102A/S103P/S104F/H111F I51V/N52L/S54T/G56H (APFF VLTH) & L6_IGKJ1*01 S28N/S30D/S31H S52L/A55S (NDH LS)”: in assay [3], the Notch1 luciferase reporter luminescence, T98G reporter cells + CHO-DLL4, 100 nM Fab, replicate 1 came out at 2400; the Notch1 luciferase reporter luminescence, T98G reporter cells + CHO-DLL4, 100 nM Fab, replicate 2 was 2280; the Notch1 luciferase reporter luminescence, T98G reporter cells + CHO-DLL4, 100 nM Fab, replicate 3 stood at 2150; the Notch1 luciferase reporter luminescence, T98G reporter cells + CHO-DLL4, 100 nM Fab, replicate 4 came to 2170.

Consider “Fab VH3-23_IGHD2-21*01>3_IGHJ6*01 H100E/S108P/Y113G Y109G & V2-13_IGLJ2*01”, for which, in [4], the ECL multispot signal (ratio to blank; column not labelled) was found to be 2.7.

On to “Fab VH3-23_IGHD2-21*01>3_IGHJ6*01 H100E/S108P/Y113G Y110I & V2-13_IGLJ2*01”, for which, in [5], the ECL multispot signal (ratio to blank; column not labelled) amounted to 2.5.

“Fab VH3-23_IGHD2-21*01>3_IGHJ6*01 H100E/S108P/Y113G Y110T & V2-13_IGLJ2*01”: the ECL multispot signal (ratio to blank; column not labelled) stood at 3.5 in assay [6] and 2.3 in assay [5].

On to “Fab VH3-23_IGHD3-10*01>3_IGHJ6*01 Y110R & O12_IGKJ1*01”, for which the ECL signal/blank ratio in assay [7] is 3; in assay [8] it was 3; in assay [9], 2.5; in [10], 2.8.

As for “Fab VH3-23_IGHD3-10*01>3_IGHJ6*01 Y111R & O12_IGKJ1*01”, the ECL signal/blank ratio came to 2.9 in [7], 3.2 in [8] and 3 in assay [10].

As to “Fab VH3-23_IGHD3-10*01>3_IGHJ6*01 Y112P & O12_IGKJ1*01”, the ECL signal/blank ratio turned out to be 1 in assay [11]; 1.1 in assay [12]; 0.9 in assay [13]; 1.1 in assay [14]; 0.8 in assay [15]; 1.1 in assay [16]. Also, in assay [17], the ECL signal/blank ratio came out at 1.4.

In the case of “Fab VH5-51_IGHD5-18*01>3_IGHJ4*01 G100K/G104T (H:KT) & V3-4_IGLJ1*01 G95A”, the values for the ECL signal in assay [18], in assay [19] and in assay [20] were 999, 1090 and 707, respectively.

Consider “Fab VH5-51_IGHD5-18*01>3_IGHJ4*01 G100K/G104T (H:KT) & V3-4_IGLJ1*01 G97A”, for which the ECL signal in assay [21] was 642; in [22] it was 528; in assay [18], 1110; in assay [19] it was 1030; in assay [20], 660.

With “Fab VH5-51_IGHD5-18*01>3_IGHJ4*01 G100K/G104T (H:KT) & V3-4_IGLJ1*01 L92A”, the ECL signal in [21] is 695; in assay [19] it was 959; in assay [20] it was 693.

Regarding “Fab VH5-51_IGHD5-18*01>3_IGHJ4*01 G100K/G104T (H:KT) & V3-4_IGLJ1*01 M94A”, the ECL signal in assay [18] is 1150; in assay [19], 1090.

In the case of “Fab VH5-51_IGHD5-18*01>3_IGHJ4*01 G100K/G104T (H:KT) & V3-4_IGLJ1*01 S96A”, the ECL signal in [21] amounted to 678; in assay [22] it was 684; in assay [18] it was 1120; in assay [19] it was 927; in assay [20], 715.

As for “Fab VH5-51_IGHD5-18*01>3_IGHJ4*01 G100K/G104T (H:KT) & V3-4_IGLJ1*01 S99A”, the ECL signal in assay [18] is 909; in [19] it was 943.

Substance “Fab VH5-51_IGHD5-18*01>3_IGHJ4*01 G100K/G104T (H:KT) & V3-4_IGLJ1*01 V91A” gave an ECL signal in assay [19] of 1030.

Regarding “Fab VH5-51_IGHD5-18*01>3_IGHJ4*01 G100K/G104T (H:KT) & V3-4_IGLJ1*01 Y93A”, the ECL signal in assay [18] was determined as 1130; in assay [19], 1050.

Turning to “Fab VH5-51_IGHD5-18*01>3_IGHJ4*01 G100K/G104T W33A & V3-4_IGLJ1*01”, the ECL signal stood at 513 in assay [23], 921 in [24] and 788 in [25].

On to “IgG of VH1-46_IGHD6-6*01_IGHJ1*01 S102A/S103P/S104F/H111F I51V/N52L/S54T/G56H (APFF VLTH) & L6_IGKJ1*01 S28N/S30D/S31H S52L/A55S (NDH LS) (antibody)”, for which, in [3], the Notch1 luciferase reporter luminescence, T98G reporter cells + CHO-DLL4, 0.8 nM IgG, replicate 1 was 4440; the Notch1 luciferase reporter luminescence, T98G reporter cells + CHO-DLL4, 0.8 nM IgG, replicate 2 turned out to be 4520; the Notch1 luciferase reporter luminescence, T98G reporter cells + CHO-DLL4, 0.8 nM IgG, replicate 3 stood at 3900; the Notch1 luciferase reporter luminescence, T98G reporter cells + CHO-DLL4, 0.8 nM IgG, replicate 4 came out at 3980. In assay [3], the Notch1 luciferase reporter luminescence, T98G reporter cells + CHO-DLL4, 4 nM IgG, replicate 1 was 4260; the Notch1 luciferase reporter luminescence, T98G reporter cells + CHO-DLL4, 4 nM IgG, replicate 2 came to 3860; the Notch1 luciferase reporter luminescence, T98G reporter cells + CHO-DLL4, 4 nM IgG, replicate 3 turned out to be 3950; the Notch1 luciferase reporter luminescence, T98G reporter cells + CHO-DLL4, 4 nM IgG, replicate 4 was determined as 3760. Also, in assay [3], the Notch1 luciferase reporter luminescence, T98G reporter cells + CHO-DLL4, 20 nM IgG, replicate 1 turned out to be 1250; the Notch1 luciferase reporter luminescence, T98G reporter cells + CHO-DLL4, 20 nM IgG, replicate 2 worked out at 1270; the Notch1 luciferase reporter luminescence, T98G reporter cells + CHO-DLL4, 20 nM IgG, replicate 3 came to 1170; the Notch1 luciferase reporter luminescence, T98G reporter cells + CHO-DLL4, 20 nM IgG, replicate 4 was 1190. Also, in [3], the Notch1 luciferase reporter luminescence, T98G reporter cells + CHO-DLL4, 100 nM IgG, replicate 1 came out at 757; the Notch1 luciferase reporter luminescence, T98G reporter cells + CHO-DLL4, 100 nM IgG, replicate 2 came out at 807; the Notch1 luciferase reporter luminescence, T98G reporter cells + CHO-DLL4, 100 nM IgG, replicate 3 stood at 678; the Notch1 luciferase reporter luminescence, T98G reporter cells + CHO-DLL4, 100 nM IgG, replicate 4 was determined as 688.
